Here are results for three molecules from patent publication US7138497 (CHIRON, dated 2006).

Test [1] concerns the target T1, c-erbB-2 extracellular domain (ECD) with His6 peptide, attached to agarose beads (UniProt P04626 23-652, limits assumed).
T1 construct: extracellular domain; Expressed in CHO cells, purified by IMAC, coupled to agarose beads
Description: affinity chromatography on c-erbB-2 ECD-agarose, eluted with 5M LiCl. The protocol:
The (sFv')_2 heterodimers can be separated by a two step affinity chromatography procedure taking advantage of the bivalent nature of the dimer. For instance, during the purification of the 741F8/26-10 heterodimer the mixture initially was loaded onto an ouabain-Sepharose column, washed with a PBS, 1 M NaCl buffer, to remove any non-specifically adsorbed material, and rewashed with PBS to reduce the salt concentration. The reactive 26-10 sFv' species bound to the resin were eluted with 20 mM ouabain in PBS and the eluate dialyzed against PBS to remove the cardiac glycoside. The 741F8/26-10 heterodimers were then repurified on a c-erbB-2-agarose affinity column taking advantage of the ECD binding site in the heterodimer. […] Prior to use, the buffer was exchanged with PBS by dialysis.

Test [2] deals with T1, c-erbB-2 extracellular domain (ECD) …. Description: affinity chromatography on c-erbB-2 ECD-agarose. An excerpt: The refolded 26-10 sFv' polypeptide chains were purified by ouabain-Sepharose affinity chromatography, as described for the 26-10 sFv constructs (Huston, et. al., 1988, *Proc. Natl Acad. Sci. USA* 85; 5879–5883 and Tai, et al., 1990, *Biochem.* 29, 8024–[…], both of which are hereby incorporated by reference). The refolded 520C9 sFv polypeptide chain was similarly purified using a c-erbB-2-agarose affinity column. […] The buffer was then exchanged by dialysis. The c-erbB-2 affinity column preferably was prepared by linking the extracellular domain of c-erbB-2 onto agarose beads.

Test [3] addresses T2, c-erbB-2 (extract of SK-Br-3 breast cancer cells coated on the plate) (UniProt P04626 23-1255).
T2 construct: Crude detergent extract of the cells, not purified protein; also called c-erbB-2 antigen
Kind of test: competition ELISA, SK-Br-3 extract on plate, 520C9-HRP probe as competitor. The protocol: In order to prepare c-erbB-2, SK-Br-3 breast cancer cells (Ring et al., 1989, Cancer Res. 49: 3070–3080), were harvested and resuspended in 10 mM NaCl, 0.5% Nonidet-P40, pH 8. Insoluble debris was removed by centrifugation and the extract filtered through 0.45 Millex HA and 0.2 Millex GV filters. 40µl of the extract was added to each well of a 96 well plate and incubated overnight at 37° C. The plates then were washed with PBS and non-specific binding sites blocked following the addition of PBS containing 1% skim milk by incubation for one hour at room temperature. The sFv and 520C9 Fab samples, diluted in PBS, were added to the wells and incubated for 30 mins at room temperature. A control containing only dilution buffer was also included.
In order to quantitate the reaction, 20µl of a 520C9-horseradish peroxidase (HRP) probe (Zymed Labs., South San Francisco, Calif.), diluted to 14 µl/ml in PBS containing 1% skim milk, was added to each well and incubated for one hour at room temperature. The plate was then washed four times with PBS, the peroxidase substrate added and incubated for 30 minutes at room temperature. The reaction was quenched with H_2SO_4 and the […] values measured.
On the technique in general: ELISA stands for enzyme-linked immunosorbent assay.

B1: 741F8/26-10 (sFv')2 heterodimer (bispecific antibody)
scFv 1: MAEIQLVQSGPELKKPGETVKISCKASGYTFTNYGMNWVKQAPGKGLKWMGWINTNTGEPTYAEEFKGRFAFSLETSASTAYLQINNLKNEDTATYFCGRQFITYGGFANWGQGTLVTVSASSSSGSSSSGSSSSDIVMTQSPKFMSTSVGDRVSISCKASQDVSTAVAWYQQKPGQSPKLLIYWTSTRHTGVPDRFTGSGSGTDYTLTISSVQAEDLALHYCQQHYRVPYTFGGGTKLEIKRADGGGGC
scFv 2: MEVQLQQSGPELVKPGASVRMSCKSSGYIFTDFYMNWVRQSHGKSLDYIGYISPYSGVTGYNQKFKGKATLTVDKSSSTAYMELRSLTSEDSAVYYCAGSSGNKWAMDYWGHGASVTVSSSGSSSSGSSSSGSDVVMTQTPLSLPVSLGDQASISCRSSQSLVHSNGNTYLNWYLQKAGQSPKLLIYKVSNRFSGVPDRFSGSGSGTDFTLKISRVEAEDLGIYFCSQTTHVPPTFGGGTKLEIKRSGGGGC
modifications: C-terminal cysteine of the (Gly)4-Cys tail disulfide linked to the other chain
notes: Made by reacting 26-10 sFv'-TNB with reduced 741F8 sFv'; also called 741F8/26-10 heterodimer
Regarding B1, in test [1], the binding result was “binds”.

B2: 520C9 sFv single-chain binding protein (scFv)
scFv: EIQLVQSGPELKKPGETVKISCKASGYTFANYGMNWMKQAPGKGLKWMGWINTYTGQSTYADDFKERFAFSLETSATTAHLQINNLRNEDSATYFCARRFGFAYWGQGTLVSVSASISSSSGSSSSGSSSSGSDIQMTQSPSSLSASLGERVSLTCRASQDIGNSLTWLQQEPDGTIKRLIYATSSLDSGVPKRFSGSRSGSDYSLTISSLESEDFVVYYCLQYAIFPYTFGGGTNLEIKRAD
notes: also called biosynthetic 520C9 sFv
On to B2, for which the binding result in test [2] and in test [3] was “binds” throughout.

B3: Fab fragment of the 520C9 monoclonal antibody (Fab, V domains shown)
VH: EIQLVQSGPELKKPGETVKISCKASGYTFANYGMNWMKQAPGKGLKWMGWINTYTGQSTYADDFKERFAFSLETSATTAHLQINNLRNEDSATYFCARRFGFAYWGQGTLVSVSA
VL: DIQMTQSPSSLSASLGERVSLTCRASQDIGNSLTWLQQEPDGTIKRLIYATSSLDSGVPKRFSGSRSGSDYSLTISSLESEDFVVYYCLQYAIFPYTFGGGTNLEIK
notes: Fab of the parental murine monoclonal antibody 520C9; The limits of VH (1-115) are derived from the printed linker position; also called 520C9 Fab; parental 520C9 Fab fragment
Consider B3, for which the binding result in test [3] is listed as “binds”.
